Measurements taken from paper PMC9001736.

What was measured:
[1] = target: ZZ domain of HERC2 (HERC2ZZ, aa 2702–2755 with additional tryptophan at the C-terminus) (human) (UniProt O95714); assay: other fluorescence titration; tryptophan fluorescence; 1 μM HERC2ZZ with increasing REEE peptide; 25 °C; 20 mM Tris (pH 6.8), 150 mM NaCl, 2 mM DTT; excitation 295 nm
[2] = target: ZZ domain of HERC2 (HERC2ZZ, aa 2702–2755 with additional tryptophan at the C-terminus) (human) (UniProt O95714); assay: other fluorescence titration; tryptophan fluorescence; 1 μM HERC2ZZ with 1 μM HERC2DOC present, increasing REEE peptide; 25 °C; 20 mM Tris (pH 6.8), 150 mM NaCl, 2 mM DTT

Sequence of ZZ domain of HERC2 (HERC2ZZ, aa 2702–2755 with additional tryptophan at the C-terminus) (human) (O95714 other isoform, or with tags, fused parts or gaps): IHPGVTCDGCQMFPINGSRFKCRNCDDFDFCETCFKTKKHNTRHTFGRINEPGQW

- Kd [1]: 1200 nM
- Kd [2]: 1000 nM
Substance: REEE peptide (mimetic of the Nt-R cargo degradation signal)
